Measured values taken from US20240141045A1 (PRECIGEN, published 2024).

How the values were obtained:
[1] = molecular target: T1, TGF-β1 (UniProt P01137 279-390); assay: cell-based or functional assay
[2] = molecular target: T1, TGF-β1; assay: cell-based or functional assay; remark: listed apart in the source
[3] = molecular target: T2, PD-1 Fc fusion protein (UniProt Q15116 25-167, limits assumed); assay: SPR (Biacore 3000), recombinant PD-1 Fc immobilised on CM5 chip, fusion protein injected
T2 construct: Antigen immobilised on the CM5 chip in all PD-1 SPR assays; also called PD-1 fused to human Fc region; PD-1-Fc antigen; not shown: human Fc region
Experimental: Surface plasma resonance (SPR) analysis was performed using Biacore3000, CM5 chip, an amine-coupling kit, 10×HBS-P running buffer and Glycine for. […] Dissociation was allowed to proceed followed by regeneration of the chip surface.

T1 sequence (P01137 279-390 limits assumed): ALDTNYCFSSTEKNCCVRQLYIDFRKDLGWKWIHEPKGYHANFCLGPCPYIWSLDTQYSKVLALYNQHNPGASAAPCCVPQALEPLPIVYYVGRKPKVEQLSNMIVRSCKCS
T2 sequence (Q15116 25-167 limits assumed): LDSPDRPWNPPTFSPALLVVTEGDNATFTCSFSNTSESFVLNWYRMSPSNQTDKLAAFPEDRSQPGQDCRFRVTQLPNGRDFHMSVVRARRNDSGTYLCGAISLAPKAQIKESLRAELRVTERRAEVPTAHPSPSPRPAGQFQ

B1: Anti-PD1 (VL5-VH6).IgG4 (antibody, V domains shown)
VH: QVQLVESGGGVVQPGRSLRLDCKASGITFSNSGMHWVRQAPGKGLEWVAVIWYDGSKRYYADSVKGRFTISRDNSKNTLFLQMNSLRAEDTAVYYCATNDDYWGQGTLVTVSS
VL: EIVLTQSPATLSLSPGERATLSCRASQSVSSYLAWYQQKPGQAPRLLIYDASNRATGIPARFSGSGSGTDFTLTISSLEPEDFAVYYCQQSSNWPRTFGQGTKVEIK
IC50, inhibition of TGF-β1 induced reporter gene activity (HEK-Blue TGF-β cells, SEAP) [1]: 9 pM

B2: Anti-PD1 (VL5-VH6).IgG4-Linker 2-TGFbRII (antibody)
heavy: QVQLVESGGGVVQPGRSLRLDCKASGITFSNSGMHWVRQAPGKGLEWVAVIWYDGSKRYYADSVKGRFTISRDNSKNTLFLQMNSLRAEDTAVYYCATNDDYWGQGTLVTVSSASTKGPSVFPLAPCSRSTSESTAALGCLVKDYFPEPVTVSWNSGALTSGVHTFPAVLQSSGLYSLSSVVTVPSSSLGTKTYTCNVDHKPSNTKVDKRVESKYGPPCPSCPAPEFLGGPSVFLFPPKPKDTLMISRTPEVTCVVVDVSQEDPEVQFNWYVDGVEVHNAKTKPREEQFNSTYRVVSVLTVLHQDWLNGKEYKCKVSNKGLPSSIEKTISKAKGQPREPQVYTLPPSQEEMTKNQVSLTCLVKGFYPSDIAVEWESNGQPENNYKTTPPVLDSDGSFFLYSRLTVDKSRWQEGNVFSCSVMHEALHNHYTQKSLSLSPGKGGGGSGGGSIPPHVQKSVNNDMIVTDNNGAVKFPQLCKFCDVRFSTCDNQKSCMSNCSITSICEKPQEVCVAVWRKNDENITLETVCHDPKLPYHDFILEDAASPKCIMKEKKKPGETFFMCSCSSDECNDNIIFSEEYNTSNPD
light: not shown
IC50, TGF-β1 neutralization activity (HEK-Blue TGF-β reporter cells) [2]: 1.2 pM

B3: Anti-PD1 (VL5-VH6).IgG4-Linker12-TGFbRII (antibody)
heavy: QVQLVESGGGVVQPGRSLRLDCKASGITFSNSGMHWVRQAPGKGLEWVAVIWYDGSKRYYADSVKGRFTISRDNSKNTLFLQMNSLRAEDTAVYYCATNDDYWGQGTLVTVSSASTKGPSVFPLAPCSRSTSESTAALGCLVKDYFPEPVTVSWNSGALTSGVHTFPAVLQSSGLYSLSSVVTVPSSSLGTKTYTCNVDHKPSNTKVDKRVESKYGPPCPSCPAPEFLGGPSVFLFPPKPKDTLMISRTPEVTCVVVDVSQEDPEVQFNWYVDGVEVHNAKTKPREEQFNSTYRVVSVLTVLHQDWLNGKEYKCKVSNKGLPSSIEKTISKAKGQPREPQVYTLPPSQEEMTKNQVSLTCLVKGFYPSDIAVEWESNGQPENNYKTTPPVLDSDGSFFLYSRLTVDKSRWQEGNVFSCSVMHEALHNHYTQKSLSLSPGKDPVLEREDKVTTSKNPGSIPPHVQKSVNNDMIVTDNNGAVKFPQLCKFCDVRFSTCDNQKSCMSNCSITSICEKPQEVCVAVWRKNDENITLETVCHDPKLPYHDFILEDAASPKCIMKEKKKPGETFFMCSCSSDECNDNIIFSEEYNTSNPD
light: not shown
IC50, TGF-β1 neutralization activity (HEK-Blue TGF-β reporter cells) [2]: 2.7 pM

B4: Anti-PD1(VH7-VL6) IgG4-TGFβRII (antibody)
heavy: QVQLVQSGVEVKKPGASVKVSCKASGYTFTNYYMYWVRQAPGQGLEWMGGINPSNGGTNFNEKFKNRVTLTTDSSTTTAYMELKSLQFDDTAVYYCARRDYRFDMGFDYWGQGTTVTVSSASTKGPSVFPLAPCSRSTSESTAALGCLVKDYFPEPVTVSWNSGALTSGVHTFPAVLQSSGLYSLSSVVTVPSSSLGTKTYTCNVDHKPSNTKVDKRVESKYGPPCPSCPAPEFLGGPSVFLFPPKPKDTLMISRTPEVTCVVVDVSQEDPEVQFNWYVDGVEVHNAKTKPREEQFNSTYRVVSVLTVLHQDWLNGKEYKCKVSNKGLPSSIEKTISKAKGQPREPQVYTLPPSQEEMTKNQVSLTCLVKGFYPSDIAVEWESNGQPENNYKTTPPVLDSDGSFFLYSRLTVDKSRWQEGNVFSCSVMHEALHNHYTQKSLSLSPGKGGGGSGGGGSIPPHVQKSVNNDMIVTDNNGAVKFPQLCKFCDVRFSTCDNQKSCMSNCSITSICEKPQEVCVAVWRKNDENITLETVCHDPKLPYHDFILEDAASPKCIMKEKKKPGETFFMCSCSSDECNDNIIFSEEYNTSNPD
light: EIVLTQSPATLSLSPGERATLSCRASKGVSTSGYSYLHWYQQKPGQAPRLLIYLASYLESGVPARFSGSGSGTDFTLTISSLEPEDFAVYYCQHSRDLPLTFGGGTKVEIKRTVAAPSVFIFPPSDEQLKSGTASVVCLLNNFYPREAKVQWKVDNALQSGNSQESVTEQDSKDSTYSLSSTLTLSKADYEKHKVYACEVTHQGLSSPVTKSFNRGEC
IC50, inhibition of TGF-β1 induced reporter gene activity (HEK-Blue TGF-β cells, SEAP) [1]: 5.6 pM

B5: Anti-PD1 (VL6-VH7).IgG4(S108P).TGFbRII (antibody)
heavy: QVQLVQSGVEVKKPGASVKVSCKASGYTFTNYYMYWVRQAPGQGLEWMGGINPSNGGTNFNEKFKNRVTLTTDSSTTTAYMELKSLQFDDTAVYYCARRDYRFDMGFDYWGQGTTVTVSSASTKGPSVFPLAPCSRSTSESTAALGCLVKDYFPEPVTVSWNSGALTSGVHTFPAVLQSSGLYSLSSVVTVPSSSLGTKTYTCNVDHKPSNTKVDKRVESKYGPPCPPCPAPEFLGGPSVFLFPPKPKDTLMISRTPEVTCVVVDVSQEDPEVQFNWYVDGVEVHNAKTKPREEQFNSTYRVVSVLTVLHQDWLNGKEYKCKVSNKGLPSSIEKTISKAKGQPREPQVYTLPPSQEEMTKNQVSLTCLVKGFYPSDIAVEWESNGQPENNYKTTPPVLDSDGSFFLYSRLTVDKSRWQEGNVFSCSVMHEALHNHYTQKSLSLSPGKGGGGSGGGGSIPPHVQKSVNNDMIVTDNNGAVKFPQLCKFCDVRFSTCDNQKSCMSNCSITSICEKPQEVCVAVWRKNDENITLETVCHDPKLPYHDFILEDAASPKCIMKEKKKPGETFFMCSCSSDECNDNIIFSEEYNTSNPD
light: B4 light
IC50, inhibition of TGF-β1 induced reporter gene activity (HEK-Blue TGF-β cells, SEAP) [1]: 9.3 pM

B6: Anti-PD1 (VH7-VL6) IgG4-ADA2 (antibody)
heavy (part 1 of 2): QVQLVQSGVEVKKPGASVKVSCKASGYTFTNYYMYWVRQAPGQGLEWMGGINPSNGGTNFNEKFKNRVTLTTDSSTTTAYMELKSLQFDDTAVYYCARRDYRFDMGFDYWGQGTTVTVSS
heavy (part 2 of 2): GGGGSGGGGSSIDETRAHLLLKEKMMRLGGRLVLNTKEELANERLMTLKIAEMKEAMRTLIFPPSMHFFQAKHLIERSQVFNILRMMPKGAALHLHDIGIVTMDWLVRNVTYRPHCHICFTPRGIMQFRFAHPTPRPSEKCSKWILLEDYRKRVQNVTEFDDSLLRNFTLVTQHPEVIYTNQNVVWSKFETIFFTISGLIHYAPVFRDYVFRSMQEFYEDNVLYMEIRARLLPVYELSGEHHDEEWSVKTYQEVAQKFVETHPEFIGIKIIYSDHRSKDVAVIAESIRMAMGLRIKFPTVVAGFDLVGHEDTGHSLHDYKEALMIPAKDGVKLPYFFHAGETDWQGTSIDRNILDALMLNTTRIGHGFALSKHPAVRTYSWKKDIPIEVCPISNQVLKLVSDLRNHPVATLMATGHPMVISSDDPAMFGAKGLSYDFYEVFMGIGGMKADLRTLKQLAMNSIKYSTLLESEKNTFMEIWKKRWDKFIADVATK
light: B4 light
notes: not shown: IgG4 heavy chain constant region
Kd [3]: 0.0663 pM

B7: Anti-PD1 (VH6-VL5) IgG4-ADA2 (antibody)
heavy (part 1 of 2): B1 VH
heavy (part 2 of 2): B6 heavy (part 2 of 2)
light: not shown
notes: as for B6
Kd [3]: 0.0616 pM

B8: Anti-PD1 (VH7-VL6) IgG1-ADA2 (antibody)
heavy (part 1 of 2): B6 heavy (part 1 of 2)
heavy (part 2 of 2): B6 heavy (part 2 of 2)
light: EIVLTQSPATLSLSPGERATLSCRASKGVSTSGYSYLHWYQQKPGQAPRLLIYLASYLESGVPARFSGSGSGTDFTLTISSLEPEDFAVYYCQHSRDLPLTFGGGTKVEIK
notes: not shown: IgG1 heavy chain constant region; light chain constant region
Kd [3]: 0.509 pM

B9: Anti-PD1 (VH7-VL6) scFv-ADA2 (scFv)
chain 1: B6 heavy (part 1 of 2)
chain 2: B8 light
chain 3: B6 heavy (part 2 of 2)
Kd [3]: 130 pM

B10: Anti-PD1 (VH6-VL5) scFv-ADA2 (scFv)
chain 1: B1 VH
chain 2: B1 VL
chain 3: B6 heavy (part 2 of 2)
Kd [3]: 3460 pM
